The target of this experiment is T7-tagged TanGIBLE (Tandem BAG6 domain I BUILD linked entity) (human) (UniProt P46379). Nature of the experiment: co-IP.

In turn, “Flag-tagged IL-2 receptor α subunit without its signal sequence (Flag-IL-2Rα ΔSS) (domain or fragment)” had a fold co-precipitated against BAG6 N200, with MG-132 of 2.4 fold and a fold co-precipitated against BAG6 N200, without MG-132 of 5.6 fold.

The record behind these values is PMC11734626.
